From PMC4921775, “Transient Fcho1/2⋅Eps15/R⋅AP-2 Nanoclusters Prime the AP-2 Clathrin Adaptor for Cargo Binding” (Developmental Cell, 2016)

B1: FCHO1 μHD (purified, not on beads) [human] / EPS15 616–638 peptide [human] (parent complex)
chain 1: HGVSRGPSPVVLGSQDALPIATAFTEYVHAYFRGHSPSCLARVTGELTMTFPAGIVRVFSGTPPPPVLSFRLVHTTAIEHFQPNADLLFSDPSQSDPETKDFWLNMAALTEALQRQAEQNPTASYYNVVLLRYQFSRPGPQSVPLQLSAHWQCGATLTQVSVEYGYRPGATAVPTPLTNVQILLPVGEPVTNVRLQPAATWNLEEKRLTWRLPDVSEAGGSGRLSASWEPLSGPSTPSPVAAQFTSEGTTLSGVDLELVGSGYRMSLVKRRFATGMYLVSC
chain 2: NLDFFQSDPFVGSDPFKDDPFGK

Variants of: B1
Assay: ITC; parent: 2.7e+03 nM

| Kd [µM] | Variant |
| --- | --- |
| 9.1 | chain 1 HGVSRGPSPVVLGSQDALPIATAFTEYVHAYFRGHSPSCLARVTGELTMTFPAGIVRVFSGTPPPPVLSFRLVHTTAIEHFQPNADLLFSDPSQSDPETKDFWLNMAALTEALQRQAEQNPTADYYNVVLLRYQFSRPGPQSVPLQLSAHWQCGATLTQVSVEYGYRPGATAVPTPLTNVQILLPVGEPVTNVRLQPAATWNLEEKRLTWRLPDVSEAGGSGRLSASWEPLSGPSTPSPVAAQFTSEGTTLSGVDLELVGSGYRMSLVKRRFATGMYLVSC [chain 1 S124D] |
| 19.6 | chain 1 HGVSRGPSPVVLGSQDALPIATAFTEYVHAYFRGHSPSCLARVTGELTMTFPAGIVRVFSGTPPPPVLSFRLVHTTAIEHFQPNADLLFSDPSQSDPETKDFWLNMAALTEALQRQAEQNPTASYYNVVLLRYQFSRPGPQSVPLQLSAHWQCGATLTQVSVEYGYRPGATAVPTPLTNVQILLPVGEPVTNVRLQPAATWNLEEKRLTWRLPDVSEAGGSGRLSASWEPLSGPSTPSPVAAQFTSEGTTLSGVDLELVGSGYMMSLVKRRFATGMYLVSC [chain 1 R264M] |
| 77.4 | chain 1 HGVSRGPSPVVLGSQDALPIATAFTEYVHAYFRGHSPSCLARVTGELTMTFPAGIVRVFSGTPPPPVLSFRLVHTTAIEHFQPNADLLFSDPSQSDPETKDFWLNMAALTEALQRQAEQNPTASYYNVVLLRYQFSRPGPQSVPLQLSAHWQCGATLTQVSVEYGYRPGATAVPTPLTNVQILLPVGEPVTNVRLQPAATWNLEEKRLTWRLPDVSEAGGSGRLSASWEPLSGPSTPSPVAAQFTSEGTTLSGVDLELVGSGYAMGLVKRRFATGMYLVSC [chain 1 R264A, chain 1 S266G] |
